What was measured:
[1] = Viscosity of therapeutic antibodies of Table 1 at exemplary concentration; assay type: physicochemical; settings: at the Conc. (133.9-162.5 mg/ml)
[2] = pI of therapeutic antibodies of Table 1; assay type: physicochemical

| Molecule | Viscosity (cP) [1] | pl [2] |
| --- | --- | --- |
| CGRP: therapeutic antibody; IgG2, Lambda; LC SEQ ID NO 29, HC SEQ ID NO 30 (antibody, listed as Homo sapiens) heavy: MEFGLSWVFLVALLRGVQCQVQLVESGGGVVQPGRSLRLSCAASGFTFSSFGMHWVRQAPGKGLEWVAVISFDGSIKYSVDSVKGRFTISRDNSKNTLFLQMNSLRAEDTAVYYCARDRLNYYDSSGYYHYKYYGMAVWGQGTTVTVSSASTKGPSVFPLAPCSRSTSESTAALGCLVKDYFPEPVTVSWNSGALTSGVHTFPAVLQSSGLYSLSSVVTVPSSNFGTQTYTCNVDHKPSNTKVDKTVERKCCVECPPCPAPPVAGPSVFLFPPKPKDTLMISRTPEVTCVVVDVSHEDPEVQFNWYVDGVEVHNAKTKPREEQFNSTFRVVSVLTVVHQDWLNGKEYKCKVSNKGLPAPIEKTISKTKGQPREPQVYTLPPSREEMTKNQVSLTCLVKGFYPSDIAVEWESNGQPENNYKTTPPMLDSDGSFFLYSKLTVDKSRWQQGNVFSCSVMHEALHNHYTQKSLSLSPGK light: MTCSPLLLTLLIHCTGSWAQSVLTQPPSVSAAPGQKVTISCSGSSSNIGNNYVSWYQQLPGTAPKLLIYDNNKRPSGIPDRFSGSKSGTSTTLGITGLQTGDEADYYCGTWDSRLSAVVFGGGTKLTVLGQPKANPTVTLFPPSSEELQANKATLVCLISDFYPGAVTVAWKADGSPVKAGVETTKPSKQSNNKYAASSYLSLTPEQWKSHRSYSCQVTHEGSTVEKTVAPTECS | 9.6 cP | 8.8 |
| PCSK9: therapeutic antibody; IgG2, Lambda; LC SEQ ID NO 73, HC SEQ ID NO 74 (antibody, listed as Homo sapiens) heavy: MDWTWRILFLVAAATGVHSEVQLVQSGAEVKKPGASVKVSCKASGYTLTSYGISWVRQAPGQGLEWMGWVSFYNGNTNYAQKLQGRGTMTTDPSTSTAYMELRSLRSDDTAVYYCARGYGMDVWGQGTTVTVSSASTKGPSVFPLAPCSRSTSESTAALGCLVKDYFPEPVTVSWNSGALTSGVHTFPAVLQSSGLYSLSSVVTVPSSNFGTQTYTCNVDHKPSNTKVDKTVERKCCVECPPCPAPPVAGPSVFLFPPKPKDTLMISRTPEVTCVVVDVSHEDPEVQFNWYVDGVEVHNAKTKPREEQFNSTFRVVSVLTVVHQDWLNGKEYKCKVSNKGLPAPIEKTISKTKGQPREPQVYTLPPSREEMTKNQVSLTCLVKGFYPSDIAVEWESNGQPENNYKTTPPMLDSDGSFFLYSKLTVDKSRWQQGNVFSCSVMHEALHNHYTQKSLSLSPGK light: MDMRVPAQLLGLLLLWLRGARCESALTQPASVSGSPGQSITISCTGTSSDVGGYNSVSWYQQHPGKAPKLMIYEVSNRPSGVSNRFSGSKSGNTASLTISGLQAEDEADYYCNSYTSTSMVFGGGTKLTVLGQPKAAPSVTLFPPSSEELQANKATLVCLISDFYPGAVTVAWKADSSPVKAGVETTTPSKQSNNKYAASSYLSLTPEQWKSHRSYSCQVTHEGSTVEKTVAPTECS |  | 8.1 |
| Dkk1 (11H10): therapeutic antibody; IgG2, Kappa; LC SEQ ID NO 71, HC SEQ ID NO 72 (antibody, listed as Homo sapiens) heavy: MDIRLSLAFLVLFIKGVQCEVQLVESGGGLVQPANSLKLSCAASGFTFSDYAMAWVRQSPKKGLEWVATIIYDGSSTYYRDSVKGRFTISRDNAKSTLYLQMDSLRSEDTATYYCATGLGIATDYFDYWGQGVLVTVSSAETTAPSVYPLAPGTALKSNSMVTLGCLVKGYFPEPVTVTWNSGALSSGVHTFPAVLQSGLYTLTSSVTVPSSTWPSQTVTCNVAHPASSTKVDKKIVPRNCGGDCKPCICTGSEVSSVFIFPPKPKDVLTITLTPKVTCVVVDISQDDPEVHFSWFVDDVEVHTAQTRPPEEQFNSTFRSVSELPILHQDWLNGRTFRCKVTSAAFPSPIEKTISKPEGRTQVPHVYTMSPTKEEMTQNEVSITCMVKGFYPPDIYVEWQMNGQPQENYKNTPPTMDTDGSYFLYSKLNVKKEKWQQGNTFTCSVLHEGLHNHHTEKSLSHSPGK light: MGVPTHLLGLLLLWITHAICDIRMTQSPASLSASLGETVNIECLASEDIYSDLAWYQQKPGKSPQLLIYNANSLQNGVPSRFSGSGSGTQYSLKINSLQSEDVATYFCQQYNNYPPTFGGGTKLELKRADAAPTVSIFPPSTEQLATGGASVVCLMNNFYPRDISVKWKIDGTERRDGVLDSVTDQDSKDSTYSMSSTLSLTKADYESHNLYTCEVVHKTSSSPVVKSFNRNEC | 22.5 cP | 8.2 |
| Hepcidin: therapeutic antibody; IgG2, Lambda; LC SEQ ID NO 31, HC SEQ ID NO 32 (antibody, listed as Homo sapiens) heavy: MEFGLSWVFLVALLRGVQCQVQLVESGGGVVQPGRSLRLSCAASGFTFSSYGMHWVRQAPGKGLEWVAVIWYAESNKYYADSVKGRFTISRDNSKNTLYLQMNSLRAEDTAVYYCARAQEGIAPDAFDIWGQGTMVTVSSASTKGPSVFPLAPCSRSTSESTAALGCLVKDYFPEPVTVSWNSGALTSGVHTFPAVLQSSGLYSLSSVVTVPSSNFGTQTYTCNVDHKPSNTKVDKTVERKCCVECPPCPAPPVAGPSVFLFPPKPKDTLMISRTPEVTCVVVDVSHEDPEVQFNWYVDGVEVHNAKTKPREEQFNSTFRVVSVLTVVHQDWLNGKEYKCKVSNKGLPAPIEKTISKTKGQPREPQVYTLPPSREEMTKNQVSLTCLVKGFYPSDIAVEWESNGQPENNYKTTPPMLDSDGSFFLYSKLTVDKSRWQQGNVFSCSVMHEALHNHYTQKSLSLSPGK light: MDMRVPAQLLGLLLLWLRGARCYELTQPPSVSVSPGQTATITCSGDKLGERYASWYQQRPGQSPVLVIYQDIKRPSGIPERFSGSNSGNTATLTISGTQAMDEADYFCQAWYSSTNVLFGGGTKLTVLGQPKAAPSVTLFPPSSEELQANKATLVCLISDFYPGAVTVAWKADSSPVKAGVETTTPSKQSNNKYAASSYLSLTPEQWKSHRSYSCQVTHEGSTVEKTVAPTECS | 9.9 cP | 7.3 |
| Sclerostin (2B8): therapeutic antibody; IgG2, Lambda; LC SEQ ID NO 79, HC SEQ ID NO 80 (antibody, listed as Homo sapiens) heavy: MEFGLSWVFLVALLRGVQCQVQLVESGGGVVQPGRSLRLSCAASGFTFSSYVMHWVRQAPGKGLEWVAVIWYDGSNKYYADSVKGRFTISRDNSKNTLYLQMNSLRAEDTAVYYCAREGYDYGEDYYYYGMDVWGQGTTVTVSSASTKGPSVFPLAPCSRSTSESTAALGCLVKDYFPEPVTVSWNSGALTSGVHTFPAVLQSSGLYSLSSVVTVPSSNFGTQTYTCNVDHKPSNTKVDKTVERKCCVECPPCPAPPVAGPSVFLFPPKPKDTLMISRTPEVTCVVVDVSHEDPEVQFNWYVDGVEVHNAKTKPREEQFNSTFRVVSVLTVVHQDWLNGKEYKCKVSNKGLPAPIEKTISKTKGQPREPQVYTLPPSREEMTKNQVSLTCLVKGFYPSDIAVEWESNGQPENNYKTTPPMLDSDGSFFLYSKLTVDKSRWQQGNVFSCSVMHEALHNHYTQKSLSLSPGK light: MAWAPLLLTLLAHCTGSWANFMLTQPHSVSESPGKTVAISCTRNSGSIASNSVQWYQQRPGSSPTTVIFEDNQRPSGVPDRFSGSIDSSSNSASLTISGLKTEDEADYYCQSYDSNNWVFGGGTKLTVLGQPKANPTVTLFPPSSEELQANKATLVCLISDFYPGAVTVAWKADGSPVKAGVETTKPSKQSNNKYAASSYLSLTPEQWKSHRSYSCQVTHEGSTVEKTVAPTECS | 30.0 cP | 6.7 |
| TSLP: therapeutic antibody; IgG2, Lambda; LC SEQ ID NO 69, HC SEQ ID NO 70 (antibody, listed as Homo sapiens) heavy: MGSTAILGLLLAVLQGGRAQMQLVESGGGVVQPGRSLRLSCAASGFTFRTYGMHWVRQAPGKGLEWVAVIWYDGSNKHYADSVKGRFTITRDNSKNTLNLQMNSLRAEDTAVYYCARAPQWELVHEAFDIWGQGTMVTVSSASTKGPSVFPLAPCSRSTSESTAALGCLVKDYFPEPVTVSWNSGALTSGVHTFPAVLQSSGLYSLSSVVTVPSSNFGTQTYTCNVDHKPSNTKVDKTVERKCCVECPPCPAPPVAGPSVFLFPPKPKDTLMISRTPEVTCVVVDVSHEDPEVQFNWYVDGVEVHNAKTKPREEQFNSTFRVVSVLTVVHQDWLNGKEYKCKVSNKGLPAPIEKTISKTKGQPREPQVYTLPPSREEMTKNQVSLTCLVKGFYPSDIAVEWESNGQPENNYKTTPPMLDSDGSFFLYSKLTVDKSRWQQGNVFSCSVMHEALHNHYTQKSLSLSPGK light: MGSTAILGLLLAVLQGGRASYVLTQPPSVSVAPGQTARITCGGNNLGSKSVHWYQQKPGQAPVLVVYDDSDRPSWIPERFSGSNSGNTATLTISRGEAGDEADYYCQVWDSSSDHVVFGGGTKLTVLGQPKAAPSVTLFPPSSEELQANKATLVCLISDFYPGAVTVAWKADSSPVKAGVETTTPSKQSNNKYAASSYLSLTPEQWKSHRSYSCQVTHEGSTVEKTVAPTECS | 21.4 cP | 7.2 |

Source: patent US12103979B2, “N-acetylated and non-acetylated dipeptides containing arginine to reduce the viscosity of viscous compositions of therapeutic polypeptides” (AMGEN INC., priority 2017, dated 2024)
